Results reported in paper PMC6891888 (Immunity, 2019).

Target: T1, HIV-1 Env on the cell surface (HIV-1, strain BG505 (clade A), wild type, UniProt Q2N0S6)
T1 construct: also called cell-surface HIV-1 Env; source: 293T, transfected, on cells
Test: flow cytometry on cells
Settings: one partner purified

B1: 1C2 (rabbit monoclonal antibody, IgG) (antibody, V domains shown)
VH: QSLEESGGDLVKPGASLTLTCTASGFSFGWNDYMSWVRQAPGKGLEWIGCIYAGSTRSTYYANWAKGRLTISKTSSTAVTLQMTSLTAADTATYFCARGAVTYDGLGGAYLKHFNLWGPGTLVTVSS
VL: AIKMTQTPSSVSAAVGGTVTVNCRASEDIESYLAWYQQKPGQPPKLLIYDTSKLASGVPSRFKGSGSGTQFALTISGVQCDDAATYYCLYGYISSDRIDFGFGGGTELVVK
notes: also called bNAb 1C2; vax-bNAb 1C2
B1: binds.
